Common to all, as to test: Antimicrobial activity of pepsin-treated E. coli displaying multimeric antimicrobial peptide complex
Holding throughout (assay type): cell-based
Holding throughout (details): pepsin-digested in SGF 30 minutes; E. coli BL21 (DE3) = 0%, synthesized Hinge2L = 100%; OD595

Test [1] concerns gram-negative Escherichia coli. The protocol: (§1) The antimicrobial effect of the E. coli strain, constructed in Example 4 and displaying the multimeric antimicrobial peptide complex on the cell surface, was measured. Specifically, the transformed E. coli BL21 (DE3) was cultured in 100 ml of LB medium, and when the culture medium reached an OD600 of 0.5-0.6, 0.2 mM IPTG was added thereto to induce the expression of the multimeric antimicrobial peptide complex linked to the cell surface anchoring motif. 4 hours after the induction of the expression, the medium was removed, and the cells were washed twice with NAPB (sodium phosphate buffer), and then resuspended in the same buffer. All the E. coli samples were adjusted to a cell number of 1×10^10 cfu/ml. Then, pepsin was dissolved in simulated gastric fluid (SGF) (0.084 N HCl, 35 mM NaCl, pH 1.2 or 2.0), and the E. coli cells were treated with the pepsin solution and incubated for 30 minutes. After the incubation, in order to deactivate pepsin and neutralize the pH, the same concentration of NaOH aqueous solution as that of the simulated gastric fluid was added to the cells, and the cell solution was centrifuged to remove cell debris other than the monomeric antimicrobial peptide digested by pepsin.
(§2) The antimicrobial activities of the pepsin-digested monomeric antimicrobial peptide against gram-positive Staphylococus aureus, gram-negative Escherichia coli and the yeast Saccharomyces cerevisiae were measured.
(§3) Each of the microbial strains was collected in the exponential growth phase during the culture, washed twice with NAPB, and then resuspended in the same buffer. The number of the microbial cells was adjusted to 1×10^5 cfu/ml. 10 μl of an aqueous solution containing each microbial strain and the pepsin-digested monomeric antimicrobial peptide was dispensed into each well of a 96-well plate, mixed well and incubated at 37° C. for 3 hours. After 3 hours, 2×TSB (Trypticase Soy Broth) medium was added to the cells which were then incubated at 37° C. for 12 hours, after which the absorbance at OD595 was measured.

Test [2] concerns gram-positive Staphylococus aureus. Here is the method: as §1, §2, §3
Test [3] has as its system yeast Saccharomyces cerevisiae. Here is the method: as §1, §2, §3

B1: LH3: trimer of antimicrobial peptide Hinge2L linked to cell surface anchoring motif Lpp-OmpA, displayed on E. coli BL21 (DE3) (protein)
chain: MKATKLVLGNNNGPTHENQLGAGAFGGYQVNPYVGFEMGYDWLGRMPYKGSVENGAYKAQGVQLTAKLGYPITDDLDIYTRLGGMVWRADTKSNVYGKNHDTGVSPVFAGGVEYAITPEIATRGRLRVVRQWPIGRVVRRVVRRVVRLRVVRQWPIGRVVRRVVRRVVRLRVVRQWPIGRVVRRVVRRVVRL
modifications: displayed on E. coli BL21(DE3); DNA sequence of Lpp-OmpA-Hinge2L3
Consider B1, for which the antimicrobial activity in test [1] was determined as 30%; in test [2], 17.95%; in test [3], 33.17%.

Source of the values: patent US10406204B2, “Multimeric antimicrobial peptide complex which is displayed on cell surface” (KOREA ADVANCED INSTITUTE OF SCIENCE AND TECHNOLOGY, priority 2010, dated 2019).
